Experimental data published in patent US20090054250, “Methods to create fluorescent biosensors using aptamers with fluorescent base analogs” (published 2009).

Tests used:
alpha-thrombin [1] = biological target: T1, alpha-thrombin (Homo sapiens, UniProt P00734;P00734 P00734:328-363,P00734:364-622); experiment: 3MI fluorescence at saturating protein
alpha-thrombin [2] = biological target: T1, alpha-thrombin; experiment: 3MI signal, 350 nm excitation; AlexaFluor 430 FRET signal up 2.9-fold
alpha-thrombin [3] = biological target: T1, alpha-thrombin; experiment: 6MAP fluorescence at saturating protein
[4] = biological target: PDGF-BB (platelet-derived growth factor B homodimer) (UniProt P01127 P01127:82-190); experiment: saturating protein; details: chain copies: 2 stated, three-helix junction
PDGF-BB (platelet-derived growth factor B homodimer), sequence (P01127 82-190, one chain of several): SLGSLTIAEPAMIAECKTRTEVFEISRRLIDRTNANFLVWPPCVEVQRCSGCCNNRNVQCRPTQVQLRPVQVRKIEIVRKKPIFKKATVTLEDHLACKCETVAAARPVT

alpha-thrombin [5] = biological target: T1, alpha-thrombin; experiment: 3MI signal of streptavidin-aptamer complex; AlexaFluor 430 up 1.9-fold

B1: thrombin aptamer 3MI-7 (ssDNA)
DNA: GGTTGGTGTGGTTGG
modifications: n at position 7 is 3-methylisoxanthopterin replacing T [7 (3-methylisoxanthopterin replacing T)]
**Q.** For B1, which binding signal (alpha-thrombin [1]) is on record?
**A.** Its binding signal is 9.7 fold fluorescence increase.

B2: thrombin aptamer 3MI-7 AlexaFluor 430 (ssDNA)
DNA: GGTTGGTGTGGTTGG
modifications: n at position 7 is 3-methylisoxanthopterin; 5' 21-atom amino linker [7 (3-methylisoxanthopterin replacing T); 5' 21-atom amino linker with AlexaFluor 430 left out]
**Q.** With B2 as the binder, how does the binding signal (alpha-thrombin [2]) read?
**A.** The binding signal was ~7.5 fold fluorescence increase.

B3: thrombin aptamer 6MAP-7 (ssDNA)
DNA: GGTTGGTGTGGTTGG
modifications: n at position 7 is 4-amino-6-methyl-pteridone (6MAP) replacing T [7 (6MAP replacing T)]
**Q.** For B3, which binding signal (alpha-thrombin [3]) is on record?
**A.** Its binding signal is 32.9 fold fluorescence increase.

**Q.** For CACAGGCTACGGCACGTAGAGCATCACCATGATCCTGTG (ssDNA, n at position 22 is 6MAP replacing C [22 (6MAP replacing C)]) [PDGF-B aptamer 6MAP-22], which binding signal ([4]; label: 6MAP) is on record?
**A.** The binding signal was 6.7 fold fluorescence increase.

B4: PDGF-B aptamer 3MI-22 (ssDNA)
DNA: CACAGGCTACGGCACGTAGAGCATCACCATGATCCTGTG
modifications: n at position 22 is 3-methylisoxanthopterin replacing C [22 (3-methylisoxanthopterin replacing C)]
**Q.** With B4 as the binder, how does the binding signal ([4]; label: 3MI) read?
**A.** Its binding signal is 2.5 fold fluorescence increase.

B5: thrombin aptamer 3MI-7 biotin (ssDNA)
DNA: GGTTGGTGTGGTTGG
modifications: n at position 7 is 3-methylisoxanthopterin; 5' 40-atom linker [7 (3-methylisoxanthopterin replacing T); 5' 40-atom linker with biotin left out]
**Q.** For B5, which binding signal (alpha-thrombin [5]) is on record?
**A.** Its binding signal is ~7.1 fold fluorescence increase.
